Results published in publication PMC9930398, “SlMYB1 regulates the accumulation of lycopene, fruit shape, and resistance to Botrytis cinerea in tomato”.

B1: SlLCY1pro probe (dsDNA)
DNA 1: ACCGTTCACCGTTCACCGTTC
DNA 2: GAACGGTGAACGGTGAACGGT
B2: SlPR5pro probe (dsDNA)
DNA 1: TCCGTTCTCCGTTCTCCGTTC
DNA 2: GAACGGAGAACGGAGAACGGA
B3: SlPSY2pro probe (dsDNA)
DNA 1: TCGGTTATCGGTTATCGGTTA
DNA 2: TAACCGATAACCGATAACCGA

Target: SlMYB1-GST (Solanum lycopersicum, UniProt A0A3Q7I0H7 1-380)
Assay: EMSA; EMSA/Gel-Shift kit (Biyuntian/Beyotime) per instructions; buffer, salt, pH and temperature not stated
Settings: protein: recombinant; tags: GST (pGEX-4T-1, N-terminal by vector); label: biotin; blunt

SlMYB1-GST, sequence (A0A3Q7I0H7 entry or part of it): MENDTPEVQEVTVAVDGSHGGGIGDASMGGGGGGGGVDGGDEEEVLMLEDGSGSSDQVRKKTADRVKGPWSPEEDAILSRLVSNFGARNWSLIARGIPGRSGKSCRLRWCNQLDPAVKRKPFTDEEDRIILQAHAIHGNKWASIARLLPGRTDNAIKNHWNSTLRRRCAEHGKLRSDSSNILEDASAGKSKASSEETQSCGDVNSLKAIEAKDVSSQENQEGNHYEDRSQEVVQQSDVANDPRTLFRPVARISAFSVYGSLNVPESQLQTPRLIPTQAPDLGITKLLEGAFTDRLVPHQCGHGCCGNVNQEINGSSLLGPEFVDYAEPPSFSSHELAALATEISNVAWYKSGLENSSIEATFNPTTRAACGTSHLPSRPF

Binding result, binds:
B1
B2
B3
